Assay results taken from article PMC8307404, “Crystal Structure-Guided Design of Bisubstrate Inhibitors and Photoluminescent Probes for Protein Kinases of the PIM Family” (Molecules, 2021).

Assays:
PIM family = assay: Kinase profiling (radiometric filter-binding), PIM family; format: biochemical, human; conditions: 1 µM compound
Description: Kinase selectivity profiling was performed using the commercial service provided by the MRC PPU International Centre for Kinase Profiling (Dundee, UK) using a radiometric filter-binding assay. Kinases used for analysis were of human origin. The ATP concentration applied for inhibition measurements was at or below the ATP KM value of the particular PK. ARC-3125 and ARC-3126 were screened against 139 PKs, whereas compounds 1, 2, and 8 were screened against 140 PKs. The final total concentration of inhibitors in the selectivity panel was 1 µM. Residual activities were expressed as the percentage of retained activity compared to the control without inhibitor.

U2OS cells = assay: Cellular uptake of fluorescent probes, live-cell microscopy; format: cell-based, human; conditions: 1–5 μM, 10–60 min
Description: For studies of the general internalization properties of ARCs, the cells were seeded at the density of 12,000–25,000 cells per well onto an Ibidi μ-plate (96-well; Ibidi GmbH, Planegg, Germany). After 24 h incubation in growth medium, the cells were treated for 10 min, 30 min, or 1 h with dilutions of compounds 6, 7, 8, or ARC-2090 (5 μM, 2.5 μM, or 1 μM final concentration) in the phenol red-free DMEM/Ham’s F12 medium supplemented with 2% ccFBS and 2 mM glutamine. Next, cells were washed twice with PBS, and imaging medium (MEMO + Supplement A 1:100) was applied subsequently. Cells were imaged with Cytation 5 wide-field microscope (BioTek; Winooski, VT, USA) using 20× air objective and the following settings: for Cy5, 623 nm LED (intensity: 2) and Cy5 filter cube (685 nm) with 104 ms integration time and detector gain value of 2; for TAMRA, 523 nm LED (intensity: 7) and RFP filter cube (593 nm) with 252 ms integration time and detector gain value of 16; for bright-field, white LED with intensity 6, 186 ms integration time and detector gain value of 15. Four independent experiments were performed.

Compound	residual activity, PIM family, all isoforms (PIM family)	ability to cross the plasma membrane / internalization (U2OS cells)
N=C(N)NCCC[C@@H](NC(=O)CNC(=O)[C@@H](CCCNC(=N)N)NC(=O)[C@@H](CCCNC(=N)N)NC(=O)CCCCCCCNCc1nc2c(sc3ccc(Br)cc32)c(=O)[nH]1)C(=O)N[C@H](CCCCN)C(N)=O [Compound 2, BBTP-Aoc-(D-Arg)2-Gly-D-Arg-D-Lys-NH2]	4–7%	–
CN(C)c1ccc2c(c1)Oc1cc(N(C)C)ccc1C21OC(=O)c2cc(C(=O)NCCCC[C@@H](NC(=O)[C@@H](CCCNC(=N)N)NC(=O)CNC(=O)[C@@H](CCCNC(=N)N)NC(=O)[C@@H](CCCNC(=N)N)NC(=O)CCCCc3cn(Cc4nc5c(sc6ccc(Br)cc65)c(=O)[nH]4)nn3)C(N)=O)ccc21 [Compound 8, BBTP-Tap-(D-Arg)2-Gly-D-Arg-[D-Lys(5-TAMRA)]-NH2]	–	much lower internalization efficiency
